# Measured values from publication PMC12423313, “Protein-based tools for the detection and characterisation of Oropouche virus infection” (EMBO Molecular Medicine, 2025).
# B1: nanobody NpG1, His8-tagged (VHH)
# VHH: QVQLVESGGGLVQPGDSLRLSCAASGRTFTDYPMAWFRQAPGKEREFVTAINWSGGATYYADSVKGRFTISRDNTRNTVFLQMNSLKPEDTAVYYCAGGSGRLSYNMDKEYIYWGQGIQVTVSS
# notes: as the VHH of m15; also called OROV Np Nb G1 H8; not shown: His8, C-terminal, kept
# B2: biotinylated nanobody NpG1 (AviTag-His9) (VHH)
# VHH: B1 VHH
# notes: VHH NpG1 from an immunised llama; also called bNpG1; OROV Np Nb G1 BAP H9; not shown: AviTag, C-terminal, kept
# B3: OROV nucleoprotein (N), recombinant, strain BeAn19991 (natural protein, Oropouche virus strain BeAn19991)
# chain: MSEFIFNDVPQRTTSTFDPEAAYVAFEARYGQVLNAGVVRVFFLNQKKAKDVLRKTSRPMVDLTFGGVQFAMVNNHFPQFQSNPVPDNGLTLHRLSGYLARWAFTQMRSPIKQAEFRATVVVPLAEVKGCTWNDGDAMYLGFAAGAEMFLQTFTFFPLVIEMHRVLKDGMDVNFMKKVLRQRYGQKTAEQWMREEIVAVRAAFEAVGTLAWARTGFSPAARDFLRQFGIDI
# B4: OROV nucleoprotein (N) of the 2023-4 epidemic isolate AM0088, native (natural protein)
# chain: B3 chain
# notes: also called OROV AM0088 N
# B5: OROV nucleoprotein (N) in serum of patients with acute OROV infection (natural protein)
# chain: B3 chain
# notes: N protein of the Oropouche virus infecting the patients; also called OROV N protein
# B6: OROV nucleoprotein (N) of strain BeAn19991, native, in virus stocks and infected cells (natural protein, Oropouche virus strain BeAn19991)
# chain: B3 chain
# notes: N protein of Oropouche virus strain BeAn19991, GenBank AJE24680.1, as made by the virus; also called OROV BeAn19991
# B7: OROV nucleoprotein (N) of strain TRVL, native, in virus stock (natural protein)
# chain: B3 chain
# notes: N protein of Oropouche virus strain TRVL (Anderson et al, 1961); also called OROV TRVL
# B8: nanobody NpD2, His8-tagged (VHH)
# VHH: QVQLVESGGGLAQPGGSLRLSCAASGFTLDYYSIGWFRQAPGKEREGVSCISSGGSTYYADSVKGRFAISSDNAKNTVYLQMNSLKPEDTAVYYCAADIMSCPGKYSAVADYWGQGTQVIVDS
# notes: as the VHH of m11; also called OROV Np Nb D2 H8; not shown: His8, C-terminal, kept
# B9: biotinylated nanobody NpD2 (AviTag-His9) (VHH)
# VHH: B8 VHH
# notes: VHH NpD2 from an immunised llama; also called bNpD2; OROV Np Nb D2 BAP H9; not shown: AviTag, C-terminal, kept
# B10: nanobody NpE2, His8-tagged (VHH)
# VHH: QVQLVESGGGLVQAGDSLRLSCVASGFTPNPAVSWVRQAPGKDLEWVSSIYHGDITSYATSVKGRFTISRDNAKNTVYLQMNSLKPEDSAIYYCTKGDSRGQGTQVTVSS
# notes: as the VHH of m12; also called OROV Np Nb E2 H8; not shown: His8, C-terminal, kept
# B11: biotinylated nanobody NpE2 (AviTag-His9) (VHH)
# VHH: B10 VHH
# notes: VHH NpE2 from an immunised llama; also called bNpE2; OROV Np Nb E2 BAP H9; not shown: AviTag, C-terminal, kept
# B12: biotinylated nanobody SpA9 (AviTag-His9) (VHH)
# VHH: QVQLVESGGGLVQPGGSLTLSCAASGFTFSTLAMAWFRQAPGKERESVAVINRSGGIVNYADSVKGRFTITRDNAKNMVYLQMNSLKPEDTAVYYCAARTGYAYVRVSDYDSWGQGTQVTVSS
# notes: VHH A9 against Gc spike from an immunised llama; also called OROV Gc Spike Nb A9 BAP H9; not shown: AviTag, C-terminal, kept
# B13: nanobody NpE3, His8-tagged (VHH)
# VHH: QVQLVESGGGLVRPGGSLRLSCAASGFTFSNAYMTWIRQAPGKDLEWVSSIYYGDMTSYATSVKGRFTISRDNAKNTLYLQMNNLKPEDSAIYYCTKGDERGQGTQVTVSS
# notes: as the VHH of m13; also called OROV Np Nb E3 H8; not shown: His8, C-terminal, kept
# B14: nanobody NpF2, His8-tagged (VHH)
# VHH: QVQLVESGGGAVQAGGSLRLSCAASGRTFSSFPMGWFRQAPGKEREFIAAINWSGASKYYADSVKGRFAISRDNAKNTVYLQMNSLTPEDTAVYSCAAGSGRYGYTFSKEYTYWGQGTQVIVAS
# notes: as the VHH of m14; also called OROV Np Nb F2 H8; not shown: His8, C-terminal, kept
# B15: biotinylated nanobody NpF2 (AviTag-His9) (VHH)
# VHH: B14 VHH
# notes: VHH NpF2 from an immunised llama; also called bNpF2; OROV Np Nb F2 BAP H9; not shown: AviTag, C-terminal, kept
# B16: nanobody SpC7, His8-tagged (VHH)
# VHH: QVQLVESGGGLVQAGGSLRLSCAASGRTFSPNAMGWFRQAPGKEREFVSAISWSGGSTTYADSVKGRFTISRDNAKNTVSLQMNSLKPEDTAVYYCAADLEGMVVADRIWGQGTQVTVSS
# notes: as the VHH of m20; also called OROV Gc Spike Nb C7 H8; not shown: His8, C-terminal, kept
# B17: nanobody SpB6, His8-tagged (VHH)
# VHH: QVQLVESGGGLVQPGDSLRLSCAASGRTFSNYAMGWFRQAPGKEREKVAALSRSGTSTYYLDRVKGRFTISRDNTKNMVYLQMNSLEPEDTAVYYCAADPLFQNAAYHYSGQGTQVTVST
# notes: as the VHH of m18; also called OROV Gc Spike Nb B6 H8; not shown: His8, C-terminal, kept
# B18: biotinylated nanobody SpB6 (AviTag-His9) (VHH)
# VHH: B17 VHH
# notes: VHH SpB6 from an immunised llama; also called bSpB6; OROV Gc Spike Nb B6 BAP H9; not shown: AviTag, C-terminal, kept
# B19: biotinylated nanobody SpA7 (AviTag-His9) (VHH)
# VHH: QVQLVESGGGSVQAGGSLRLSCAASGRTFSAYVMGWFRQAPGKEREFVAAIRRSYGSTYYADSVKGRFTISTDNAKNTVTLQMNSLKPEDTAIYYCAAIRQGGGWGSSAVDYWGQGTQVTVAS
# notes: VHH A7 against Gc spike from an immunised llama; also called OROV Gc Spike Nb A7 BAP H9; not shown: AviTag, C-terminal, kept
# B20: biotinylated nanobody NpA2 (AviTag-His9) (VHH)
# VHH: QVQLVESGGGLVQPGGSVRLSCAASGGIFSFNAMAWYRQAPGKQRDIVALIANDGNTNYADSVKGRFTISRDNAKNTVYLQMNSLQPEDTAVYYCSALRRGAQDWGQGTQVTVSS
# notes: VHH NpA2 from an immunised llama; also called bNpA2; OROV Np Nb A2 BAP H9; not shown: AviTag, C-terminal, kept
# B21: nanobody NpA2, His8-tagged (VHH)
# VHH: B20 VHH
# notes: as the VHH of m10; also called OROV Np Nb A2 H8; not shown: His8, C-terminal, kept
# B22: biotinylated nanobody SpC6 (AviTag-His9) (VHH)
# VHH: QVQLVESGGGSVQAGGSLRLSCAASGRTFSRYAMGWLRQAPGKEREFVAAITWSGGNTYYADSVKGRFTITRDDAKNTVYLQINNPKPEDTAVYYCAAGTQTGRIRDKGPSYWGQGTQVTVSS
# notes: VHH SpC6 from an immunised llama; also called bSpC6; OROV Gc Spike Nb C6 BAP H9; not shown: AviTag, C-terminal, kept
# B23: nanobody SpC6, His8-tagged (VHH)
# VHH: B22 VHH
# notes: as the VHH of m19; also called OROV Gc Spike Nb C6 H8; not shown: His8, C-terminal, kept
# B24: biotinylated nanobody SpE8 (AviTag-His9) (VHH)
# VHH: QVQLVESGGGFVRAGDSLRLSCAASGRAFSTYAMGWFRQAPGKEREFVAGITLGSRITQYADSVKGRFTISRDNARQTMYLQMNNLQPEDTADYYCAARGQGSPPLRNRWSADDYNYWGQGLQVTVSS
# notes: VHH SpE8 from an immunised llama; also called bSpE8; OROV Gc Spike Nb E8 BAP H9; not shown: AviTag, C-terminal, kept
# B25: nanobody SpE8, His8-tagged (VHH)
# VHH: B24 VHH
# notes: as the VHH of m21; also called OROV Gc Spike Nb E8 H8; not shown: His8, C-terminal, kept
# Legend:
# [1] = target: B3; experiment: ELISA; conditions: both partners purified
# [2] = target: B3; experiment: BLI; streptavidin biosensors loaded with biotinylated nanobodies, 1 µM OROV N with or without 25 µM competitor nanobody, 300 s association, 30 °C, PBS-T, Octet Red; conditions: both partners purified
# [3] = target: T1, biotinylated nanobody-Fc fusion bFcNpD2 (C-terminal AviTag) (llama); experiment: ELISA
# T1 construct: as the VHH of m11; also called OROV FcNpD2 BAP; not shown: Fc (human IgG1 hinge and Fc domains 2 and 3), C-terminal, kept; AviTag, C-terminal, kept
# [4] = target: T2, nanobody-Fc fusion FcNpD2, HRP-conjugated (llama); experiment: ELISA
# T2 construct: as the VHH of m11; also called OROV FcNpD2; not shown: Fc (human IgG1 hinge and Fc domains 2 and 3), C-terminal, kept
# [5] = target: B3; experiment: ELISA; […], biotinylated nanobody 2 µg/mL, […], room temperature; conditions: both partners purified
# [6] = target: T3, OROV Gc spike region (residues 482-894 of the M polyprotein), recombinant, strain BeAn19991 (Oropouche virus strain BeAn19991, UniProt A0A0B5CLT0); experiment: as above; conditions: both partners purified
# T3 construct: Gc spike region (head and stalk domains) of the M polyprotein of Oropouche virus strain BeAn19991, GenBank AJE24679.1, residues 482-894; also called Gc spike domain
# [7] = target: B6; experiment: ELISA; conditions: one partner purified
# [8] = target: B7; experiment: ELISA; conditions: one partner purified
# [9] = target: T3, OROV Gc spike region (residues 482-894 …); experiment: ELISA; conditions: both partners purified
# [10] = target: T4, OROV glycoprotein Gc of strain TRVL, native, in virus stock (Oropouche virus strain TRVL (stand-in: …, UniProt A0A0B5CLT0, strain)); experiment: ELISA; conditions: one partner purified
# T4 construct: also called Gc spike; OROV TRVL
# [11] = target: T5, OROV glycoprotein Gc of strain BeAn19991, native, in virus stocks and infected cells (Oropouche virus strain BeAn19991, UniProt A0A0B5CLT0); experiment: ELISA; conditions: one partner purified
# T5 construct: On virus particles Gc stands with Gn; also called Gc spike; OROV BeAn19991
binder,measurement,setting,value
B1,binding result,[1],binds
B2,binding result,[2],binds
B3,binding result,[3]; both partners purified,binds
same,binding result,[4]; both partners purified,binds
B4,binding result,[3]; one partner purified,binds
same,binding result,[4]; one partner purified,binds
B5,binding result,[3]; one partner purified,binds
same,binding result,[4]; one partner purified,binds
B6,binding result,[3]; one partner purified,binds
same,binding result,[4]; one partner purified,binds
B7,binding result,[3]; one partner purified,binds
same,binding result,[4]; one partner purified,binds
B8,binding result,[1],binds
B9,binding result,[5],binds
B10,binding result,[1],binds
B11,binding result,[2],binds
B12,binding result,[6],binds
B13,binding result,[1],binds
B14,binding result,[1],binds
same,binding result,[7],binds
same,binding result,[8],binds
B15,binding result,[2],binds
B16,binding result,[9],binds
B17,binding result,[10],binds
same,binding result,[9],binds
same,binding result,[11],binds
B18,binding result,[6],binds
B19,binding result,[6],binds
B20,binding result,[5],binds
B21,binding result,[1],binds
B22,binding result,[6],binds
B23,binding result,[9],binds
B24,binding result,[6],binds
B25,binding result,[9],binds
